The record followed here is patent US20170152307A1.

The target of assay [1] is ptau 194-212 (pS202, pT205) (human). Kind of assay: peptide ELISA, 1 ug/mL IgG.
The target is the same in assay [2]. Kind of assay: peptide ELISA, biotinylated peptide on streptavidin plate, IgG titrated (Example 6).
Another assay addresses tau 194-212 (human). As to the kind of experiment: peptide ELISA.
In assay [3] the target is ptau 187-212 (A188) (human). Kind of assay: alanine-scan peptide ELISA, 1 ug/mL IgG.
The target in assay [4] is ptau 187-212 (A192) (human). As to the kind of experiment: alanine-scan peptide ELISA, 1 ug/mL IgG.
Assay [5] concerns the target ptau 187-212 (A202) (human). Kind of assay: alanine-scan peptide ELISA, 1 ug/mL IgG.
Assay [6] deals with ptau 187-212 (A189) (human). Kind of assay: alanine-scan peptide ELISA, 1 ug/mL IgG.
For assay [7], the target named is ptau 187-212 (A203) (human). Kind of assay: alanine-scan peptide ELISA, 1 ug/mL IgG.
In assay [8] the target is ptau 187-212 (A208) (human). Kind of assay: alanine-scan peptide ELISA, 1 ug/mL IgG.
In assay [9] the target is ptau 187-212 (A191) (human). As to the kind of experiment: alanine-scan peptide ELISA, 1 ug/mL IgG.
Assay [10] addresses ptau 187-212 (A201) (human). As to the kind of experiment: alanine-scan peptide ELISA, 1 ug/mL IgG.
Assay [11] addresses ptau 187-212 (A204) (human). Kind of assay: alanine-scan peptide ELISA, 1 ug/mL IgG.
Assay [12] addresses ptau 187-212 (A187) (human). As to the kind of experiment: alanine-scan peptide ELISA, 1 ug/mL IgG.
Assay [13] concerns the target ptau 187-212 (pS202, pT205; as printed in Table 22) (human). Kind of assay: alanine-scan peptide ELISA, 1 ug/mL IgG.
In assay [14] the target is ptau 187-212 (A205) (human). As to the kind of experiment: alanine-scan peptide ELISA, 1 ug/mL IgG.
The target in assay [15] is ptau 187-212 (A207) (human). As to the kind of experiment: alanine-scan peptide ELISA, 1 ug/mL IgG.
Assay [16] deals with ptau 187-212 (A197) (human). Kind of assay: alanine-scan peptide ELISA, 1 ug/mL IgG.
The target in assay [17] is ptau 187-212 (A212) (human). Kind of assay: alanine-scan peptide ELISA, 1 ug/mL IgG.
For assay [18], the target named is ptau 187-212 (A210) (human). As to the kind of experiment: alanine-scan peptide ELISA, 1 ug/mL IgG.
The target in assay [19] is ptau 187-212 (A211) (human). Kind of assay: alanine-scan peptide ELISA, 1 ug/mL IgG.
Assay [20] concerns the target ptau 187-212 (A209) (human). Kind of assay: alanine-scan peptide ELISA, 1 ug/mL IgG.
For assay [21], the target named is ptau 187-212 (A194) (human). Kind of assay: alanine-scan peptide ELISA, 1 ug/mL IgG.
Assay [22] concerns the target ptau 187-212 (A196) (human). As to the kind of experiment: alanine-scan peptide ELISA, 1 ug/mL IgG.
Assay [23] deals with ptau 187-212 (A193) (human). Kind of assay: alanine-scan peptide ELISA, 1 ug/mL IgG.
Assay [24] addresses ptau 187-212 (A198) (human). Kind of assay: alanine-scan peptide ELISA, 1 ug/mL IgG.
The target in assay [25] is ptau 187-212 (A195) (human). Kind of assay: alanine-scan peptide ELISA, 1 ug/mL IgG.
Assay [26] has as its target ptau 187-212 (A190) (human). Kind of assay: alanine-scan peptide ELISA, 1 ug/mL IgG.
Assay [27] deals with ptau 187-212 (A206) (human). Kind of assay: alanine-scan peptide ELISA, 1 ug/mL IgG.
Assay [28] has as its target ptau 187-212 (A200) (human). Kind of assay: alanine-scan peptide ELISA, 1 ug/mL IgG.
The target of assay [29] is ptau 187-212 (A199) (human). As to the kind of experiment: alanine-scan peptide ELISA, 1 ug/mL IgG.
The next assay addresses tau 186-253 (human). Kind of assay: peptide ELISA.
The target in a further assay is ptau 188-205 (human). Kind of assay: peptide ELISA.
For the next assay, the target named is ptau 189-206 (human). Kind of assay: peptide ELISA.
The next assay deals with ptau 192-215 (human). Kind of assay: peptide ELISA.
In the next assay the target is ptau 192-217 (human). Kind of assay: peptide ELISA.
A further assay addresses ptau 192-209 (human). As to the kind of experiment: peptide ELISA.
The next assay concerns the target tau 190-209 (human). As to the kind of experiment: peptide ELISA.
In the next assay the target is ptau 189-209 (human). As to the kind of experiment: peptide ELISA.
The target in a further assay is ptau 188-206 (human). Kind of assay: peptide ELISA.
Another assay deals with ptau 188-209 (human). As to the kind of experiment: peptide ELISA, 2 ug/mL IgG.
In the next assay the target is ptau 192-212 (human). As to the kind of experiment: peptide ELISA, 2 ug/mL IgG.
The next assay concerns the target ptau 189-212 (human). Kind of assay: peptide ELISA, 2 ug/mL IgG.
The next assay concerns the target ptau 188-212 (human). Kind of assay: peptide ELISA, 2 ug/mL IgG.
The target in assay [30] is ptau 187-212 (pY197, pT205; as printed in Table 11) (human). As to the kind of experiment: peptide ELISA, 2 ug/mL IgG.
Assay [31] addresses ptau 194-212 (pS202, pT205) (human). Kind of assay: peptide ELISA, 2 ug/mL IgG.

CBTAU-7.1 (antibody), sequence (VH): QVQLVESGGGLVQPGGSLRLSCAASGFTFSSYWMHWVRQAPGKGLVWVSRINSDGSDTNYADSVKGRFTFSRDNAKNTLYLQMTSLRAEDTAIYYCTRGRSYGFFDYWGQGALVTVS
CBTAU-7.1 (antibody), sequence (VL): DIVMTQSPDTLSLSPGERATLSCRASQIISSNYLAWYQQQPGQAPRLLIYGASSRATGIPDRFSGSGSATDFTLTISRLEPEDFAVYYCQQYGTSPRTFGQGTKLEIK
tau 194-212 (human), sequence (peptide, as listed by the source): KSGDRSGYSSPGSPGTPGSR
tau 186-253 (human), sequence (peptide, as listed by the source limits assumed): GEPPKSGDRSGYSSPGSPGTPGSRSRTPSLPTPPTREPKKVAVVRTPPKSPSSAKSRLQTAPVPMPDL

Turning to “AT8 monoclonal antibody (Thermo, MN1020)”, the OD450 in assay [1] was more than 1.5 od; in the assay with tau 194-212 (human), less than 0.3 od. The same substance registered an EC50 (read off the curve) in [2] of 0.1 µg/mL.
Consider CBTAU-7.1 (antibody), for which the OD450 was 1 to 1.5 od in assay [3]; more than 1.5 od in assay [4]; 1 to 1.5 od in assay [5]; 1 to 1.5 od in assay [6]; more than 1.5 od in assay [7]; more than 1.5 od in [8]. The OD450 in assay [9] was more than 1.5 od; in assay [10], more than 1.5 od; in assay [11], 0.5 to 1 od; in assay [12], 1 to 1.5 od; in assay [13] it was more than 1.5 od; in [14], 0.5 to 1 od. In addition, the OD450 in assay [15], in [16], in assay [17], in assay [18], in assay [19] and in [20] was more than 1.5 od throughout. For the same substance, the OD450 in assay [21], in assay [22], in assay [23], in assay [24], in assay [25] and in assay [26] was more than 1.5 od each time. In addition, the OD450 in assay [27] was 0.5 to 1 od; in assay [28], 1 to 1.5 od; in assay [29], 1 to 1.5 od; in assay [1] it was 1 to 1.5 od; with tau 186-253 (human) it was less than 0.3 od; with ptau 188-205 (human) it was less than 0.3 od. Moreover, the OD450 in the assay with ptau 189-206 (human), in the assay with ptau 192-215 (human), in the assay with tau 194-212 (human), with ptau 192-217 (human), in the assay with ptau 192-209 (human) and with tau 190-209 (human) was less than 0.3 od throughout. Also, the OD450 was less than 0.3 od with ptau 189-209 (human); less than 0.3 od with ptau 188-206 (human); more than 1.5 od with ptau 188-209 (human); 1 to 1.5 od with ptau 192-212 (human); 1 to 1.5 od with ptau 189-212 (human); 0.5 to 1 od in the assay with ptau 188-212 (human). Moreover, the results for the OD450 in assay [30] and in assay [31] were 0.5 to 1 od and 1 to 1.5 od, respectively.
